We go through one molecule from patent US20220259328A1 (Kyowa Kirin, published 2022).

One experiment addresses T1, human CD40-GST (human, UniProt P25942 21-193).
T1 construct: also called human CD40-GST protein; not shown: GST region of the N5 vector
As to the kind of experiment: phage ELISA on immobilized human CD40-GST, anti-M13-HRP detection. As for the experimental part: (§1) In the ELISA, MAXISORP (manufactured by NUNC, Inc.) in which the human or monkey CD40-GST in Example 1 was immobilized on each well and a portion to which the human or monkey CD40-GST is not bound was blocked using SuperBlock Blockig Buffer (manufactured by Thermo Fisher. Inc.) was used. To each well, each phage clone was added and reacted at room temperature for 30 minutes, and thereafter, each well was washed 3 times with PBS-T.

In the next experiment the target is T2, monkey CD40-GST (monkey, UniProt P25942 21-193 (human entry)).
T2 construct: also called monkey CD40-GST protein; not shown: GST region of the N5 vector
T2 chain: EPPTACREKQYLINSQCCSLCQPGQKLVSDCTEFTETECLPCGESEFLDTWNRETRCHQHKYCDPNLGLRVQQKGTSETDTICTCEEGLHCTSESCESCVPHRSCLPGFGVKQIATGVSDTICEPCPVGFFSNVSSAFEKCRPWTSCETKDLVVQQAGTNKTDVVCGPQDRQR
Kind of experiment: phage ELISA on immobilized monkey CD40-GST, anti-M13-HRP detection. As for the experimental part:
as §1

B1: R1090S55A (monoclonal phage clone displaying scFv) (scFv, V domains shown)
VH: EVQLVQSGAEVKKPGESLKISCKGSGYSFIIYWIGWVRQMPGKGLEWMGIIYPNDADTRYSPSFQGQVTISADKSISTAYLQWSSLKASDTAMYYCVRLGTRDWFDPWGQGTLVTVSS
VL: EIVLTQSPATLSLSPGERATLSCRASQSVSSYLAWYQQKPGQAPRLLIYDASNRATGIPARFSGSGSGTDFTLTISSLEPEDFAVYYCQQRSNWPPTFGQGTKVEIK
notes: also called anti-CD40 antibody R1090S55A
Turning to B1, the binding result with human CD40-GST and with monkey CD40-GST was “binds” throughout.
